Experimental findings from patent US20230279141A1 (MINERVA BIOTECHNOLOGIES, published 2023) are described below.

No end group written: not given here.

The target of assay [1] is T1, recombinant human NME7-AB (human, UniProt Q9Y5B8 92-376).
T1 construct: Monomer with A and B domains; also called NME-AB
T1 sequence: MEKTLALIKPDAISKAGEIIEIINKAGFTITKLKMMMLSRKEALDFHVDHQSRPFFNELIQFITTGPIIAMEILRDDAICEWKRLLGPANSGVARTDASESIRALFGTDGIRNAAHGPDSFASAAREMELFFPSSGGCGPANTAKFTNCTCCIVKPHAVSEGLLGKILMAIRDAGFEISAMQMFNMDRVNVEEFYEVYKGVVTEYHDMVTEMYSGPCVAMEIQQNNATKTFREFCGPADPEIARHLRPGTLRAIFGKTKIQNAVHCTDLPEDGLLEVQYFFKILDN
The experiment in a line: ELISA, plate coated with recombinant NME7-AB (FIG. 24). In general terms: An ELISA detects its analyte on a solid surface through an enzyme-linked reagent.

For assay [2], the target named is T1, recombinant human NME7-AB. Description: sandwich ELISA, PSMGFR-Cys-BSA on the plate, second tagged PSMGFR in solution (FIG. 1). The procedure:
The PSMGFR peptide bearing a C-terminal Cysteine (PSMGFR-Cys) was covalently coupled to BSA using Imject Maleimide activated BSA kit (Thermo Fisher). PSMGFR-Cys coupled BSA was diluted to 10 ug/mL in 0.1M carbonate/bicarbonate buffer pH 9.6 and 50 uL was added to each well of a 96 well plate. After overnight incubation at 4° C., the plate was washed twice with PBS-T and a 3% BSA solution was added to block remaining binding site on the well. After 1 h at RT the plate was washed twice with PBS-T and NME7, diluted in PBS-T+1% BSA, was added at different concentrations. After 1 h at RT the plate was washed 3× with PBS-T and anti-NM23-H7 (B-9, Santa Cruz Biotechnology), diluted in PBS-T+1% BSA, was added at 1/500 dilution. […] After 1 h at RT the plate was washed 3× with PBS-T and binding of NME7 was measured at 415 nm using ABTS solution (Pierce). […]
After 1 h at RT the plate was washed 3× with PBS-T and His-Tagged PSMGFR peptide (PSMGFR-His) or biotinylated PSMGFR peptide (PSMGFR-biotin), diluted in PBS-T+1% BSA, was added at different concentration. […] After 1 h at RT the plate was washed 3× with PBS-T and binding of PSMGFR peptide to NME7 already bound to another PSMGFR peptide (which could not signal by anti-His antibody or by streptavidin) coupled BSA was measured at 415 nm using a ABTS solution (Pierce).

B1: anti-NME7AB monoclonal antibody 5F3A5D4 (antibody, V domains shown)
VH: VQLQQSGPDLVKPGTSVKISCKTSGNTFTEYTMHWVKQSHGKSLEWIGGFNPNNGVTNYNQKFKGKATLTVDKSSSTAYMELRSLTSEDSAVYYCARRYYHSTYVFYFDSWGQGTTLTVSS
VL: DIQMTQTTSSLSASLGDRVTISCSASQGISNYLNWFQQKPDGTIKLLIYYTSSLHSGVPSRFSGSGSGTDYSLTISNVEPEDIATYYCQQYSKLPYTFGGGTKLEIKR
notes: Mouse monoclonal
On to B1, for which, in assay [1], the binding result is “binds”.

B2: anti-NME7AB monoclonal antibody 8F9A5A1 (antibody, V domains shown)
VH: IQLVQSGPELKKPGETVKISCKASGYTFTNYGMNWVKQAPGKGLKWMGWINTYTGEPTYVDDFKGRFAFSLETSATTAYLQINNLKNEDTSTYFCARLRGIRPGPLAYWGQGTLVTVSA
VL: EILLTQSPAIIAASPGEKVTITCSASSSVSYMNWYQQKPGSSPKIWIYGISNLASGVPARFSGSGSGTSFSFTINSMEAEDVATYYCQQRSSYPPTFGGGTKLEIKR
notes: Mouse monoclonal
Turning to B2, in assay [1], the binding result was “binds”.

B3: PSMGFR peptide (MUC1* extra cellular domain peptide) (peptide)
peptide: GTINVHDVETQFNQYKTEAASRYNLTISDVSVSDVPFPFSAQSGA
modifications: also: also used with C-terminal Cys coupled to BSA, or His-tagged or biotinylated
notes: also called MUC1* peptide; FLR
With B3, the binding result in assay [2] is listed as “binds”.
